# Measurements from US20260218135A1 (REGENTS OF THE UNIVERSITY OF COLORADO A BODY CORPORATE, published 2026).
# B1: N-terminal fragment of HA-PEG10 (22 kDa self-cleavage product, N-terminal ~100 amino acids) (other, Homo sapiens, UniProt Q86TG7 1-111, looked up)
# chain: MTERRRDELSEEINNLREKVMKQSEENNNLQSQVQKLTEENTTLREQVEPTPEDEDDDIELRGAAAAAAPPPPIEEECPEDLPEKFDGNPDMLAPFMAQCQIFMEKSTRDF
# notes: A band on the blot; The construct that mimics it (AA1-111) is m6; also called NTF; shorter proteolytically cleaved N-terminal fragment; not shown: 2x HA tag (N-terminal) of the parent HA-PEG10 construct
# B2: HA-capsid^CTD (human PEG10, AA161-259, 1x HA C-terminal) (other, Homo sapiens, UniProt Q86TG7 161-259, looked up)
# chain: PQRREVAKRKIRRLRQGMGSVIDYSNAFQMIAQDLDWNEPALIDQYHEGLSDHIQEELSHLEVAKSLSALIGQCIHIERRLARAAAARKPRSPPRALVL
# notes: range 161-259; not shown: 1x HA tag (C-terminal)
# B3: HA-N-terminal fragment construct (2x HA-tagged human PEG10, AA1-111) (other, Homo sapiens, UniProt Q86TG7 1-111, looked up)
# chain: MTERRRDELSEEINNLREKVMKQSEENNNLQSQVQKLTEENTTLREQVEPTPEDEDDDIELRGAAAAAAPPPPIEEECPEDLPEKFDGNPDMLAPFMAQCQIFMEKSTRDF
# notes: range 1-111; Truncation construct that mimics the natural self-cleavage of PEG10; also called HA-NTF; not shown: 2x HA tag (N-terminal)
# Key:
# [1] = target: HA-PEG10 gag-pol (2x HA-tagged human PEG10, AA1-708) (Homo sapiens) (UniProt Q86TG7); assay: cell-based or functional assay
# [2] = target: T1, FLAG-HsRTL8c-3'UTR (3x FLAG-tagged human RTL8c, AA1-113) (Homo sapiens, UniProt A6ZKI3 1-113); assay: crosslinking co-immunoprecipitation, IP-FLAG, HEK293 lysate, western blot
# T1 construct: range 1-113; Expressed in HEK293 cells from pcDNA3.1; also called FLAG-RTL8c; human FLAG-RTL8; not shown: 3x FLAG tag (N-terminal)
# T1 sequence (A6ZKI3 whole entry, the tested form may be a part): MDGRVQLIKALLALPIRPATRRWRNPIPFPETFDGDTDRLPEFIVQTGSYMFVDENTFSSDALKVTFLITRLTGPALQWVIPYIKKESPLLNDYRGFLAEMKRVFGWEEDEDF
# From the text: HA-PEG10 was visible as four distinct bands representing gag-pol, gag, and two self-cleavage products generated via activity of the PEG10 protease domain^{16,36,37}. The 37 kDa band represents a retrovirus-like capsid fragment, and the 22 kDa band reflects a protein fragment consisting of the N-terminal ~100 amino acids of the protein (referred to as the ‘N-terminal fragment’, or ‘NTF’) 16. Upon immunoprecipitation of HA-PEG10, Applicants observed co-immunoprecipitation of FLAG-RTL8c (FIG. 3a).
# Beads were first crosslinked to antibodies. Primary antibodies (5 μg) or isotype controls (5 μL) were incubated with 40 μL protein A (Invitrogen) or protein G (Pierce) bead slurry for 30 min to couple antibodies to beads. After coupling, beads were collected by centrifugation and the supernatant discarded. Unless otherwise stated, all incubations and washes were performed with end-over-end rotation at room temperature. All centrifugation to collect beads was performed 2,500×g for 2 min. Beads were washed twice (1 mL 0.2M sodium borate, pH 9 for 1 min), resuspended in 400 μL 20 mM dimethyl pimelimidate (DMP, Thermo) and incubated for 30 min to crosslink antibodies. After crosslinking, beads were washed twice (1 mL 0.2M ethanolamine (EMD Millipore) pH 8 for 5 min) and incubated in 1.4 mL 0.2M ethanolamine for two hr. Beads were then washed twice (1 mL PBS for 5 min). […]
# [3] = target: T1, FLAG-HsRTL8c-3'UTR (3x FLAG-tagged …); assay: co-immunoprecipitation with FLAG-RTL8c, western blot (FIG. S6b)
Molecule,binding result [2],further results
"HA-HsRTL8c-3'UTR (2x HA-tagged human RTL8c, AA1-113) (from UniProt A6ZKI3 1-113)",,abundance of HA-RTL8c relative to HA-PEG10 in the VLP fraction (western blot) [1]: 5%
B1,no binding,
B2,no binding,
B3,,binding result [3]: no binding
